Target: T1, human ubiquitin conjugating enzyme E2 protein Ubc-7 (human, UniProt P60604 1-165, limits assumed)
T1 construct: also called Homo sapiens ubiquitin-conjugating enzyme E2G 2; UCE E2 Ubc7
T1 sequence: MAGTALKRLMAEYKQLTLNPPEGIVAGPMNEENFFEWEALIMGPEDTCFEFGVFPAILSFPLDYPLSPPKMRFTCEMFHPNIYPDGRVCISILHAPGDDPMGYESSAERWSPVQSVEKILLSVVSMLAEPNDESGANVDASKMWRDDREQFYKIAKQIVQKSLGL
Test: crystal structure of the gp78-Ubc7 fusion protein (SEQ ID No. 12) solved to 2.2 Å

B1: gp78 E3 RING motif with flanking sequence (amino acid residues 322 to 393 of the full-length gp78 E3 protein) (other)
chain: MEARFAVATPEELAVNNDDCAICWDSMQAARKLPCGHLFHNSCLRSWLEQDTSCPTCRMSLNIADNNRVREE
notes: also called gp78 RING; gp78RING motif
binding result: binds
